{"source": "patent US20240392004A1", "about": "(IMMUNOWAKE, published 2024)", "binders": {"B1": {"name": "PD-L1(mut2)-Fc, I54Q/E58M/R113T/M115L/S117A/G119K (Fc fusion)", "chain 1": "FTVTVPKDLYVVEYGSNMTIECKFPVEKQLDLAALQVYWMMEDKNIIQFVHGEEDLKVQHSSYRQRARLLKDQLSLGNAALQITDVKLQDAGVYTCLIAYKGADYKRITVKVNAPYNKINQRILVVDPVTSEHELTCQAEGYPKAEVIWTSSDHQVLSGKTTTTNSKREEKLFNVTSTLRINTTTNEIFYCTFRRLDPEENHTAELVIPELPLAHPPNERGGGGSGGGDKTHTCPPCPAPEDEGGPSVFLFPPKPKDTLMISRTPEVTCVVVDVSHEDPEVKFNWYVDGVEVHNAKTKPREEQYNSTYRVVSVLTVLHQDWLNGKEYKCKVSNKALPAPIEKTISKAKGQPREPQVYVYPPSREEMTKNQVSLTCLVKGFYPSDIAVEWESNGQPENNYKTTPPVLDEDGSFALVSKLTVDKSRWQQGNVFSCSVMHEALHNHYTQKSLSLSPGK", "chain 2": "FTVTVPKDLYVVEYGSNMTIECKFPVEKQLDLAALQVYWMMEDKNIIQFVHGEEDLKVQHSSYRQRARLLKDQLSLGNAALQITDVKLQDAGVYTCLIAYKGADYKRITVKVNAPYNKINQRILVVDPVTSEHELTCQAEGYPKAEVIWTSSDHQVLSGKTTTTNSKREEKLFNVTSTLRINTTTNEIFYCTFRRLDPEENHTAELVIPELPLAHPPNERGGGGSGGGDKTHTCPPCPAPEKKGGPSVFLFPPKPKDTLMISRTPEVTCVVVDVSHEDPEVKFNWYVDGVEVHNAKTKPREEQYNSTYRVVSVLTVLHQDWLNGKEYKCKVSNKALPAPIEKTISKAKGQPREPQVYVLPPSREEMTKNQVSLLCLVKGFYPSDIAVEWESNGQPENRYMTWPPVLDSDGSFFLYSKLTVDKSRWQQGNVFSCSVMHEALHNHYTQKSLSLSPGK"}, "B2": {"name": "IFN-γ(A23V/A23V)/PD-L1(mut2)-Fc (Fc fusion)", "chain 1": "FTVTVPKDLYVVEYGSNMTIECKFPVEKQLDLAALQVYWMMEDKNIIQFVHGEEDLKVQHSSYRQRARLLKDQLSLGNAALQITDVKLQDAGVYTCLIAYKGADYKRITVKVNAPYNKINQRILVVDPVTSEHELTCQAEGYPKAEVIWTSSDHQVLSGKTTTTNSKREEKLFNVTSTLRINTTTNEIFYCTFRRLDPEENHTAELVIPELPLAHPPNERGGGGSGGGDKTHTCPPCPAPEDEGGPSVFLFPPKPKDTLMISRTPEVTCVVVDVSHEDPEVKFNWYVDGVEVHNAKTKPREEQYNSTYRVVSVLTVLHQDWLNGKEYKCKVSNKALPAPIEKTISKAKGQPREPQVYVYPPSREEMTKNQVSLTCLVKGFYPSDIAVEWESNGQPENNYKTTPPVLDEDGSFALVSKLTVDKSRWQQGNVFSCSVMHEALHNHYTQKSLSLSPGK", "chain 2": "FTVTVPKDLYVVEYGSNMTIECKFPVEKQLDLAALQVYWMMEDKNIIQFVHGEEDLKVQHSSYRQRARLLKDQLSLGNAALQITDVKLQDAGVYTCLIAYKGADYKRITVKVNAPYNKINQRILVVDPVTSEHELTCQAEGYPKAEVIWTSSDHQVLSGKTTTTNSKREEKLFNVTSTLRINTTTNEIFYCTFRRLDPEENHTAELVIPELPLAHPPNERGGGSGQDPYVKEAENLKKYFNAGHSDVVDNGTLFLGILKNWKEESDRKIMQSQIVSFYFKLFKNFKDDQSIQKSVETIKEDMNVKFFNSNKKKRDDFEKLTNYSVTDLNVQRKAIHELIQVMAELSPAAKTGKRKRSQMLFRGGGGSGGGGSGGGGSGGGGSQDPYVKEAENLKKYFNAGHSDVVDNGTLFLGILKNWKEESDRKIMQSQIVSFYFKLFKNFKDDQSIQKSVETIKEDMNVKFFNSNKKKRDDFEKLTNYSVTDLNVQRKAIHELIQVMAELSPAAKTGKRKRSQMLFRGGGGGSGGGDKTHTCPPCPAPEKKGGPSVFLFPPKPKDTLMISRTPEVTCVVVDVSHEDPEVKFNWYVDGVEVHNAKTKPREEQYNSTYRVVSVLTVLHQDWLNGKEYKCKVSNKALPAPIEKTISKAKGQPREPQVYVLPPSREEMTKNQVSLLCLVKGFYPSDIAVEWESNGQPENRYMTWPPVLDSDGSFFLYSKLTVDKSRWQQGNVFSCSVMHEALHNHYTQKSLSLSPGK"}}, "key": {"[1]": {"target": "T1, human IL-2 receptor (IL-2Rα, IL-2Rβ, IL-2Rγ) (human, UniProt P01589 22-272; P14784 27-551; P31785 23-369)", "T1 sequence (looked up) 1": "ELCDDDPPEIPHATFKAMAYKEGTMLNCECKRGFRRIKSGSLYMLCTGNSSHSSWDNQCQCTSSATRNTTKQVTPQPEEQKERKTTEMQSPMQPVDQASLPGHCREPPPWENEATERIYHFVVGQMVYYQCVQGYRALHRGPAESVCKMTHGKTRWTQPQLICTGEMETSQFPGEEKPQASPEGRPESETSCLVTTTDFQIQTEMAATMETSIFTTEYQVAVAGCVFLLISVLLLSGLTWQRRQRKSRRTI", "T1 sequence (looked up) 2": "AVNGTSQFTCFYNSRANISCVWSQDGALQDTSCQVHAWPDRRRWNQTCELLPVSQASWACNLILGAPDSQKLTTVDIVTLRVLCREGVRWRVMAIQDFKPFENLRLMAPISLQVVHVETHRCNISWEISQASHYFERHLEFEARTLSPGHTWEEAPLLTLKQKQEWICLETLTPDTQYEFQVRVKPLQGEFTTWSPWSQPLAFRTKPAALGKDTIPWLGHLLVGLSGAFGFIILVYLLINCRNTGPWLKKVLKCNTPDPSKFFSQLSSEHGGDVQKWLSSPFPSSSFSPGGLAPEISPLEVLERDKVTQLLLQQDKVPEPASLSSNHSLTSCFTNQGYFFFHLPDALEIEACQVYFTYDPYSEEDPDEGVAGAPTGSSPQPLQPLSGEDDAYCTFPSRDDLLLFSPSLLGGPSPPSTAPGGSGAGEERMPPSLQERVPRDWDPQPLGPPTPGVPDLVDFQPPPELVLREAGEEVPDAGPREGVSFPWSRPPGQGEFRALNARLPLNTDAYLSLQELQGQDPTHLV", "T1 sequence (looked up) 3": "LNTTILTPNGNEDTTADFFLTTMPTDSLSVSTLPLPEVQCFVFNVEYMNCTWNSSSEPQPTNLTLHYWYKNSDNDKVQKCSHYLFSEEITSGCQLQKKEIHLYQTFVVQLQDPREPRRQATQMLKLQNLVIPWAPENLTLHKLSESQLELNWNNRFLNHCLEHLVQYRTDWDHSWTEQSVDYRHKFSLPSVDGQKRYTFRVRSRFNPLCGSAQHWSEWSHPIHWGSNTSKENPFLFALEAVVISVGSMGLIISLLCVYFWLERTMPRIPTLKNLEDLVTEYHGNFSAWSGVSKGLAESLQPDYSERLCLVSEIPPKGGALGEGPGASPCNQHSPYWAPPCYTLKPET", "experiment": "cell-based or functional assay"}, "[2]": {"target": "T2, human PD-1 on cells (HEK-PD-1 reporter cells; activated PBMC) (human, UniProt Q15116 25-288)", "T2 sequence (Q15116 25-288)": "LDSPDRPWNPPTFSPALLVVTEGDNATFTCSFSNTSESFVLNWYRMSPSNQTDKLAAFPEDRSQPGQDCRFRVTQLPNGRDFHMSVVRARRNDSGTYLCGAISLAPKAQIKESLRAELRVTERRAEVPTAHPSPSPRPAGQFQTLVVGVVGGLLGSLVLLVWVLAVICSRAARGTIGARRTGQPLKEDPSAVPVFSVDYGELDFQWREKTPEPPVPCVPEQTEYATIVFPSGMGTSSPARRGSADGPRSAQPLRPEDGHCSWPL", "experiment": "cell-based or functional assay"}, "mouse PD-1": {"target": "T3, mouse PD-1 (mouse, UniProt Q02242 25-167, limits assumed)", "T3 construct": "also called mPD-1", "T3 sequence (looked up)": "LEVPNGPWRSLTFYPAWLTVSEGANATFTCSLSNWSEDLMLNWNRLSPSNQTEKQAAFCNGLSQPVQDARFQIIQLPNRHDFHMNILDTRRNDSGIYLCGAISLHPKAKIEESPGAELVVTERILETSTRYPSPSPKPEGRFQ", "experiment": "PD-L1-Fc format, calibrated on PD-L1(wt)-Fc, method not stated"}, "human PD-1": {"target": "T4, human PD-1 (human, UniProt Q15116 25-167, limits assumed)", "T4 construct": "also called hPD-1", "T4 sequence (Q15116 25-167 limits assumed)": "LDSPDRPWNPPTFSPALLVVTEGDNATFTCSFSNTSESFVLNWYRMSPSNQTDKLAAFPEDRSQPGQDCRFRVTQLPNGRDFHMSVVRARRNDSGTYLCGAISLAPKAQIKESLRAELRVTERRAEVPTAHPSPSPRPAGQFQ", "experiment": "PD-L1-Fc format, calibrated on PD-L1(wt)-Fc, method not stated"}, "[3]": {"target": "T5, IFN-γ receptor (IFNGR1 and IFNGR2) (UniProt P15260 18-489; P38484 22-337, limits assumed)", "T5 sequence (looked up) 1": "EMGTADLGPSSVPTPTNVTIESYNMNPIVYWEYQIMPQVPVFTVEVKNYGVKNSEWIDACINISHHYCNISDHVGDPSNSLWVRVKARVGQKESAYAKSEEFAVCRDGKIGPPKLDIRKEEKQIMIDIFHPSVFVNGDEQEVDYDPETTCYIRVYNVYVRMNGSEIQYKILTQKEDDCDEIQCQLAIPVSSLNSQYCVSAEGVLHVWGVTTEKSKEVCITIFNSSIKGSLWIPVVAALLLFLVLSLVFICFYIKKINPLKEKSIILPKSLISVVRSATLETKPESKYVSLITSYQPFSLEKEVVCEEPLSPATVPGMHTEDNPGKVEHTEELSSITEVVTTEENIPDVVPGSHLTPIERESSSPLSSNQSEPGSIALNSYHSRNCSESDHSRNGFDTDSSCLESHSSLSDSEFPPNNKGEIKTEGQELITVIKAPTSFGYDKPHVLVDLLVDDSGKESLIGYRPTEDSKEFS", "T5 sequence (looked up) 2": "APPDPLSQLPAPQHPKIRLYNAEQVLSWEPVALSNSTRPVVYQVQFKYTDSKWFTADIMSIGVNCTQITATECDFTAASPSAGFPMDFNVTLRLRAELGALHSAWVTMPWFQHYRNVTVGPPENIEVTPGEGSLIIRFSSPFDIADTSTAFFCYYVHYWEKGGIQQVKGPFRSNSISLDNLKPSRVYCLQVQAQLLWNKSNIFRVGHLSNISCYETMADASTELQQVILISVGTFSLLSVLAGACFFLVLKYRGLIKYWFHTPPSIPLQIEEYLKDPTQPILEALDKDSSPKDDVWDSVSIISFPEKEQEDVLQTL", "experiment": "cell-based or functional assay"}, "[4]": {"target": "human IL-12 receptor complex (IL-12Rβ1 and IL-12Rβ2) (human, UniProt P42701 24-662; Q99665 24-862)", "sequence (Q99665 24-862, chain 2 of 2, other chains not shown)": "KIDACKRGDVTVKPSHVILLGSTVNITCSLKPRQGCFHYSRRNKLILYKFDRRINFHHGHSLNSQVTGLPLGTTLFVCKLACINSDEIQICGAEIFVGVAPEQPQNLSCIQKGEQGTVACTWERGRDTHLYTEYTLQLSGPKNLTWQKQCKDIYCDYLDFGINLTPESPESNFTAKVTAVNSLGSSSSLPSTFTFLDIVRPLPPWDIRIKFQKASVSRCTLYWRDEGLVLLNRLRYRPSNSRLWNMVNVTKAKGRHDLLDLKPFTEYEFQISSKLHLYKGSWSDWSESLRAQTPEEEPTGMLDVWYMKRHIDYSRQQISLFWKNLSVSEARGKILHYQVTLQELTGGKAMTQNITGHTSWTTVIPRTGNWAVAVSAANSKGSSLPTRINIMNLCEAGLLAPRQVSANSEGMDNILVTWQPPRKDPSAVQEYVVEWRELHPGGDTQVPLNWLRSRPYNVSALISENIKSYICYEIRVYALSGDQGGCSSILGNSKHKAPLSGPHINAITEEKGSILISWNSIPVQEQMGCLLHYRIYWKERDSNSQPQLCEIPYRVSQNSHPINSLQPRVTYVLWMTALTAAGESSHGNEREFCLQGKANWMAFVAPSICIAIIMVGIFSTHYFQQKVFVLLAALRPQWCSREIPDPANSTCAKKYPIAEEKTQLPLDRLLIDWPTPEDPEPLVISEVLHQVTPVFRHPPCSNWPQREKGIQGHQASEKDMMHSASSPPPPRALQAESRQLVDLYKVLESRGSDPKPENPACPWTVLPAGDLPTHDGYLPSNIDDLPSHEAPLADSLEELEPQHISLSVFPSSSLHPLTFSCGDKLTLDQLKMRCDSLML", "experiment": "cell-based or functional assay"}, "[5]": {"target": "T2, human PD-1 on cells (HEK-PD-1 reporter …)", "experiment": "cell-based or functional assay", "remark": "listed apart in the source"}}}
{"binder": "B1", "values": [{"measurement": "IL-2 signal transduction, HEK-IL-2", "setting": "[1]", "result": "< 0.1", "unit": "%"}, {"measurement": "IL-2 signal transduction, HEK-IL-2-PD-1", "setting": "[2]", "result": "< 0.1", "unit": "%"}, {"measurement": "Kd", "setting": "mouse PD-1", "result": 120, "unit": "nM"}, {"measurement": "Kd", "setting": "human PD-1", "result": 150, "unit": "nM"}]}
{"binder": "B2", "values": [{"measurement": "IFN-γ signal transduction, HEK-IFN-γ", "setting": "[3]", "result": "< 0.1", "unit": "%"}, {"measurement": "IL-12 signal transduction, HEK-IL-12", "setting": "[4]", "result": "< 0.2", "unit": "%"}, {"measurement": "IFN-γ signal transduction, HEK-IFN-γ-PD-1", "setting": "[5]", "result": 44, "unit": "%"}, {"measurement": "IL-12 signal transduction, HEK-IL-12-PD-1", "setting": "[5]", "result": "< 0.2", "unit": "%"}]}
